What was measured:
Test in all cases: BLI
[1] = target: P1.40 D62A
[2] = target: P1.40 R43A
[3] = target: P1.40 F110A
[4] = target: P1.40 D89A
[5] = target: P1.40 T109A
[6] = target: P1.40 R111A
[7] = target: P1.40 E46A
[8] = target: P1.40 E44A

- Kd [1]: 1.26 nM
- koff [1]: 0.000668 s⁻¹
- Kd [2]: 2.86 nM
- koff [2]: 0.00141 s⁻¹
- Kd [3]: > 1000 nM
- koff [3]: > 0.001 s⁻¹
- Kd [4]: 2.79 nM
- koff [4]: 0.000882 s⁻¹
- Kd [5]: > 1000 nM
- koff [5]: > 0.001 s⁻¹
- Kd [6]: 3.49 nM
- koff [6]: 0.00147 s⁻¹
- Kd [7]: 1.22 nM
- koff [7]: 0.00064 s⁻¹
- Kd [8]: 0.477 nM
- koff [8]: 0.000359 s⁻¹
B1: CHRD (aa 449–693) of human PCSK9, 6xHis-tagged (domain or fragment)
chain: HGAGWQLFCRTVWSAHSGPTRMATAVARCAPDEELLSCSSFSRSGKRRGERMEAQGGKLVCRAHNAFGGEGVYAIARCCLLPQANCSVHTAPPAEASMGTRVHCHQQGHVLTGCSSHWEVEDLGTHKPPVLRPRGQPNQCVGHREASIHASCCHAPGLECKVKEHGIPAPQEQVTVACEEGWTLTGCSALPGTSHVLGAYAVDNTCVVRSRDVSTTGSTSEGAVTAVAICCRSRHLAQASQELQ
modifications: biotinylated where it was immobilised for BLI (site not told)

Source: article PMC9816786 (2022)
